Data published in patent EP4714975A1 (Nanjing Leads Biolabs Co., Ltd., dated 2026).

T1: cynomolgus monkey CD3 protein (ACRO Biosystems, Cat. No.: CDD-C52W4) (cynomolgus monkey, UniProt Q95LI5 22-117)
T1 sequence (looked up): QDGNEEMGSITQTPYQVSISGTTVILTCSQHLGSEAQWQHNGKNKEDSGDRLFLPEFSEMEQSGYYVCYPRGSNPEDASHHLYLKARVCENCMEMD

B1: anti-LILRB4 chimeric antibody B1A2 (antibody, human IgG1, V domains shown)
VH: QVQLVESGGGLVQPGGSLRLSCAASGFTFSSYTMSWVRQAPGKGLEWISDINNDGGKTYYAFSVEGRFTISRDNAKNTLYLQMNSLKPEDTAVYYCVRDHQYTSRNGDRGQGTQVTVSS
notes: also called Camelid-derived anti-LILRB4 VHH B1A2-Fc
B2: humanized anti-LILRB4 antibody huB1G5-1 (antibody, V domains shown)
VH: EVQLVESGGGLVQPGGSLRLSCAASESIFSSNVMGWYRQAPGKQRELVAAVGINGLTKIGDSVKGRFTISRDNAKNSVYLQMNSLRAEDTAVYYCAAGAYVRFLQNSPDYWGQGTQVTVSS
notes: Humanized VHH-Fc heavy-chain antibody without light chain; also called Humanized anti-LILRB4 VHH huB1G5-1-Fc
B3: humanized anti-LILRB4 antibody huB1G5-3 (antibody, V domains shown)
VH: EVQLVESGGGLVQPGGSLRLSCAASESIFSSNVMGWYRQAPGKQRELVAAVGIQGLTKIGDSVKGRFTISRDNAKNSVYLQMNSLRAEDTAVYYCAAGAYVRFLQQSPDYWGQGTQVTVSS
notes: Humanized VHH-Fc heavy-chain antibody without light chain; also called Humanized anti-LILRB4 VHH huB1G5-3-Fc
B4: h193 (a fully human monoclonal antibody against LILRB4) (antibody, human IgG1, kappa, V domains shown)
VH: EVQLVESGGGLVQPGGSLRLSCAASGFSLSSSYWISWVRQAPGKGLEWIGSIDSGSVGITYYATWVKGRFTISRDNSKNTLYLQMNSLRAEDTAVYYCARHGDNWALDLWGQGTLVTVSS
VL: DLVMTQSPSTLSASVGDRVTITCQASQSINSWLAWYQQKPGKPPKLLIYKASTLASGVSSRFSGSGSGTEFTLTISSLQPDDVATYYCQHGYIRGDLDNVFGGGTKVEIKR
notes: Control antibody; also called antibody h193; control antibody h193
B5: anti-LILRB4 chimeric antibody B1G5 (antibody, human IgG1, V domains shown)
VH: EVQLVESGGGLVQAGGSLRLSCAASESIFSSNVMGWYRQSPGHQRELVAAVGINGLTKIGDSVKGRFTISRDNAKNTVYLQMNSLKVEDTAVYYCAAGAYVRFLQNSPDYWGQGTQVTVSS
notes: also called Camelid-derived anti-LILRB4 VHH B1G5-Fc
B6: anti-LILRB4 chimeric antibody 2A3 (antibody, human IgG1, V domains shown)
VH: EVQVVESGGGSVQTGGSLTLSCAASGRTFRSNGMGWFRQAPGKEREFVAAIRWSGRRTTYTDSVKGRFTISSDSAKNTVYLQMSSLKPEDTAVYYCAVDLLPPYGALDKYDYWGQGTQVTVSS
notes: also called Camelid-derived anti-LILRB4 VHH 2A3-Fc
B7: anti-LILRB4 chimeric antibody 1H12 (antibody, human IgG1, V domains shown)
VH: EVQVVESGGGLVQAGGSLRLSCAASETIFSSNVMGWYRQAHGKQRELVAATGINGVTKYADSVKGRFTISRDNAKNTVYLQMNSLNVEDTAVYYCAAGVWRNFVMRSPDYWGQGTQVTVSS
notes: also called Camelid-derived anti-LILRB4 VHH 1H12-Fc
B8: anti-LILRB4xCD3 bispecific antibody huB1G5-CD3Fab (bispecific antibody, human IgG1, lambda, L234A L235A)
heavy 1: not shown
light: QAVVTQEPSLTVSPGGTVTLTCRSSTGAVTTSNYANWVQQKPGQAPRGLIGGTNKRAPGVPARFSGSLLGGKAALTLSGAQPEDEAEYFCALWYSNLWVFGGGTKLTVLGQPKAAPSVTLFPPSSEELQANKATLVCLISDFYPGAVTVAWKADSSPVKAGVETTTPSKQSNNKYAASSYLSLTPEQWKSHRSYSCQVTHEGSTVEKTVAPTEC
heavy 2: EVQLVESGGGLVQPGGSLRLSCAASESIFSSNVMGWYRQAPGKQRELVAAVGIQGLTKIGDSVKGRFTISRDNAKNSVYLQMNSLRAEDTAVYYCAAGAYVRFLQQSPDYWGQGTQVTVSSEPKSSDKTHTCPPCPAPEAAGGPSVFLFPPKPKDTLMISRTPEVTCVVVAVSHEDPEVKFNWYVDGVEVHNAKTKPREEQYNSTYRVVSVLTVLHQDWLNGKEYKCKVSNKALAAPIEKTISKAKGQPREPQVCTLPPSRDELTKNQVSLSCAVKGFYPSDIAVEWESNGQPENNYKTTPPVLDSDGSFFLVSKLTVDKSRWQQGNVFSCSVMHEALHNHYTQKSLSLSPGK
notes: HC1: CD3Fab heavy chain-knob; LC1: CD3Fab light chain; HC2: huB1G5-hole (VHH huB1G5-3 and Fc hole); One anti-LILRB4 VHH, one anti-CD3 Fab, knob-in-hole Fc
B9: anti-LILRB4xCD3 bispecific antibody huB1G5-CD3-2VHH (bispecific antibody, human IgG1, lambda, L234A L235A)
heavy 1: not shown
light: QAVVTQEPSLTVSPGGTVTLTCRSSTGAVTTSNYANWVQQKPGQAPRGLIGGTNKRAPGVPARFSGSLLGGKAALTLSGAQPEDEAEYFCALWYSNLWVFGGGTKLTVLGQPKAAPSVTLFPPSSEELQANKATLVCLISDFYPGAVTVAWKADSSPVKAGVETTTPSKQSNNKYAASSYLSLTPEQWKSHRSYSCQVTHEGSTVEKTVAPTEC
heavy 2: EVQLVESGGGLVQPGGSLRLSCAASESIFSSNVMGWYRQAPGKQRELVAAVGIQGLTKIGDSVKGRFTISRDNAKNSVYLQMNSLRAEDTAVYYCAAGAYVRFLQQSPDYWGQGTQVTVSSEPKSSDKTHTCPPCPAPEAAGGPSVFLFPPKPKDTLMISRTPEVTCVVVAVSHEDPEVKFNWYVDGVEVHNAKTKPREEQYNSTYRVVSVLTVLHQDWLNGKEYKCKVSNKALAAPIEKTISKAKGQPREPQVCTLPPSRDELTKNQVSLSCAVKGFYPSDIAVEWESNGQPENNYKTTPPVLDSDGSFFLVSKLTVDKSRWQQGNVFSCSVMHEALHNHYTQKSLSLSPGK
notes: HC1: huB1G5-CD3Fab heavy chain-knob (VHH, GGGGS, hu34H1-VH, CH1, Fc knob); LC1: CD3Fab light chain; HC2: huB1G5-hole; Two anti-LILRB4 VHHs, one anti-CD3 Fab
B10: anti-LILRB4xCD3 bispecific antibody huB1G5-ScFv-2VHH (bispecific antibody)
heavy 1: not shown
heavy 2: EVQLVESGGGLVQPGGSLRLSCAASESIFSSNVMGWYRQAPGKQRELVAAVGIQGLTKIGDSVKGRFTISRDNAKNSVYLQMNSLRAEDTAVYYCAAGAYVRFLQQSPDYWGQGTQVTVSSEPKSSDKTHTCPPCPAPEAAGGPSVFLFPPKPKDTLMISRTPEVTCVVVAVSHEDPEVKFNWYVDGVEVHNAKTKPREEQYNSTYRVVSVLTVLHQDWLNGKEYKCKVSNKALAAPIEKTISKAKGQPREPQVCTLPPSRDELTKNQVSLSCAVKGFYPSDIAVEWESNGQPENNYKTTPPVLDSDGSFFLVSKLTVDKSRWQQGNVFSCSVMHEALHNHYTQKSLSLSPGK
notes: HC1: huB1G5-Hu34ScFv-knob (VHH, GGGGS, 23L2 ScFv, Fc knob); HC2: huB1G5-hole

Tests used:
[1] = target: T2, human LILRB4 expressed on CHO-K1 cells (CHO-K1-huLILRB4) (human, UniProt Q8NHJ6 22-280); assay: flow cytometry on CHO-K1-huLILRB4 cells
T2 construct: also called engineered cells expressing human LILRB4

[2] = target: T3, human LILRB4 endogenously expressed on tumor cells (MV-4-11, HL-60) (human, UniProt Q8NHJ6 22-448); assay: flow cytometry on MV-4-11 cells
T3 construct: whole, on cells; also called tumor cells (MV-411) expressing human LILRB4; HL-60 cells that endogenously express human LILRB4

[3] = target: T4, cynomolgus monkey LILRB4 protein (ACRO Biosystems, Cat. No.: CDK-C5227) (cynomolgus monkey); assay: BLI (ForteBio Octet RED96e), antibody captured on AHC sensor, antigen in solution, 1:1 model
T4 construct: Bought reagent

[4] = target: human CD3 protein (Sino Biological, Cat. No.: CT038-H2508H) (human, UniProt P07766 23-126); assay: as above
Sequence of human CD3 protein (Sino Biological, Cat. No.: CT038-H2508H) (P07766 23-126): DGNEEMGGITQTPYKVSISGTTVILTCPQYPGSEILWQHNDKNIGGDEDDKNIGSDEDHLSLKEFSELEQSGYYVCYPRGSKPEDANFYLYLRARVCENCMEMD

[5] = target: T1, cynomolgus monkey CD3 protein (ACRO …); assay: as above

| Binder | binding result [1] | binding result [2] | Kd [3] | koff [3] | kon [3] | Kd [4] | koff [4] | kon [4] | Kd [5] | koff [5] | kon [5] |
| --- | --- | --- | --- | --- | --- | --- | --- | --- | --- | --- | --- |
| B1 | binds | – | – | – | – | – | – | – | – | – | – |
| B2 | – | binds | – | – | – | – | – | – | – | – | – |
| B3 | – | binds | – | – | – | – | – | – | – | – | – |
| B4 | binds | binds | – | – | – | – | – | – | – | – | – |
| B5 | binds | – | – | – | – | – | – | – | – | – | – |
| B6 | binds | – | – | – | – | – | – | – | – | – | – |
| B7 | binds | – | – | – | – | – | – | – | – | – | – |
| B8 | – | – | 11 nM | 0.00351 s⁻¹ | 320000 M⁻¹ s⁻¹ | 26.3 nM | 0.00803 s⁻¹ | 305000 M⁻¹ s⁻¹ | 6.59 nM | 0.0021 s⁻¹ | 318000 M⁻¹ s⁻¹ |
| B9 | – | – | 10.6 nM | 0.0023 s⁻¹ | 218000 M⁻¹ s⁻¹ | 22.6 nM | 0.00549 s⁻¹ | 242000 M⁻¹ s⁻¹ | 6.92 nM | 0.00191 s⁻¹ | 276000 M⁻¹ s⁻¹ |
| B10 | – | – | 15.3 nM | 0.00365 s⁻¹ | 238000 M⁻¹ s⁻¹ | 35.7 nM | 0.0112 s⁻¹ | 313000 M⁻¹ s⁻¹ | 28.2 nM | 0.00801 s⁻¹ | 284000 M⁻¹ s⁻¹ |
